Assays:
[1] = target: Oregon-Green-labelled actin monomers (OG-actin) (UniProt P68135 1-377, Oregon-Green (OG) label, position not stated); test: other fluorescence titration
[2] = target: Oregon-Green-labelled actin monomers (OG-actin) (UniProt P68135 1-377, Oregon-Green (OG) label, position not stated); test: stopped-flow fluorescence kinetics

GLAAAIAGAKLRKVSK [hGAB peptide (G-actin-binding site of human VASP)]
Kd [1]: 10.3 µM

B1: EVH2 domain of Dictyostelium discoideum VASP (DdEVH2) (domain or fragment)
chain: GRNALLGSIENFSKGGLKKTVTVDKSAGVPTKTTPSANSAASNAGSEPSSGGSTPAPAPKSSGGGGGGDLMAEVMAKRAKMKAAASQPKEESSAPTPAPTPAPTPAPTPSSTSFKPPQSFSKPATKTAAANKPPSPSLSAPLPSTVANEDLQSLKEEILTEVRKEIQKAKDEILEAIRASQH
kon [2]: 5.3e+07 M⁻¹ s⁻¹

GRNALLGSIENFSKGGLKKTVT [DdGAB peptide (G-actin-binding site of Dictyostelium discoideum VASP)]
Kd [1]: 0.63 µM

GRNALLSDISKGKKLKKTVT [WIP-WH2-peptide (WH2 core motif of WASP-interacting protein)]
Kd [1]: 0.84 µM
